What was measured:
[1] = system: human lung epithelial cell line A549; test: IL-33 mRNA induction in A549 cells (real-time PCR); format: cell-based; conditions: cytokine treatment for 72 hours, normalized to GAPDH
Experimental: (§1) FIGS. 18A-18J show the role of IL-33 in the persistence of asthma. FIG. 18A, A549 cells were cultured in medium alone or with IL-33 ([…]), IL-1b (2 ng/mL), IL-4 (10 ng/mL), IL-13 (20 ng/mL), IL-17 (10 ng/mL), TNF (2 ng/mL), IFN-γ (10 ng/mL), or IFN-γ plus TNF (same concentrations) for 72 hours, and then mRNA was analyzed for IL-33 normalized to glyceraldehyde-3-phosphate dehydrogenase (GAPDH). *P<0.05 and **P<0.01. There were 4 to 8 mice per group. FIGS. 18B-18E show the direct effect of IL-33 on airway hyperreactivity, lung ILCs, and autoinduction. […] IN, Intranasal. […] The change in RL with the 25-mg dose of methacholine is shown (n=5 per group). *P<0.05.
Immediately after flexiVent analysis, lung sections were collected in RIPA buffer (50 mmol/L Tris [pH 7.4], 150 mmol/L NaCl, 1 mmol/L EDTA, 1 mmol/L NaF, 1 mmol/L Na3VO4, and 0.1 mmol/L phenylmethylsulfonyl fluoride) containing protease and phosphatase inhibitors and homogenized. Lysed samples were subjected to 10% SDS-PAGE, transferred to a polyvinylidene difluoride membrane, and then immunoblotted with primary antibodies (IL-33 [R&D Systems], tubulin [H-235], and b-actin [Santa Cruz Biotechnology, Dallas, Tex]). After washing, the membranes were incubated with a horseradish peroxidase-conjugated secondary antibody. After additional washing, the membranes were developed with ECL reagent, as previously described (Gorska et al. 2007). A549 cell culture A549 cells were cultured in RPMI in 10% FBS (HyClone; Thermo Scientific, Waltham, Mass.) and 1% penicillin/streptomycin (Gibco, Carlsbad, Calif.) and maintained at 378C in a humidified 5% CO2 incubator. All cytokines were purchased from PeproTech (Rocky Hill, N.J.). In one experiment cells were treated with medium, IL-1b (2 ng/mL), IL-4 (10 ng/mL), IL-13 (20 ng/mL), IL-17 (10 ng/mL), IL-33 (20 ng/mL), TNF (2 ng/mL), IFN-g (10 ng/mL), and TNF (2 ng/mL) plus IFN-g (10 ng/mL) for 72 hours. Cellular RNA was analyzed for mRNA for IL-33 and IL-33R. In a second experiment cells were pretreated for 24 hours with medium, IL-1b (2 ng/mL), IL-4 (10 ng/mL), IL-13 (20 ng/mL), IL-17 (10 ng/mL), TNF (2 ng/mL), or IFN-g (10 ng/mL) before stimulation for 72 hours with IL-33 (20 ng/mL). Cellular RNAwas analyzed for mRNA for IL-33. In a third experiment cells were treated for 24 hours with DRA (5 μg/mL dust mite, 15 μg/mL ragweed, and 5 μg/mL Aspergillus species). Cellular RNA was analyzed for mRNA for IL-33. In a fourth experiment cells were treated for 24 hours with IL-13 (20 ng/mL) and ATP, and the supernatant was collected and analyzed for IL-33 levels by means of ELISA, according to the manufacturer's instructions (R&D systems). […]

[2] = system: A549 cells; test: IL-33 autoinduction in A549 cells after cytokine pretreatment; format: cell-based, human; conditions: pretreated 24 hours with cytokine, then 72 hours with IL-33 (20 ng/mL)
Experimental: as §1
(§2) Immediately after flexiVent analysis, lung sections were collected in RIPA buffer (50 mmol/L Tris [pH 7.4], 150 mmol/L NaCl, 1 mmol/L EDTA, 1 mmol/L NaF, 1 mmol/L Na3VO4, and 0.1 mmol/L phenylmethylsulfonyl fluoride) containing protease and phosphatase inhibitors and homogenized. […] Cellular RNA was analyzed for mRNA for IL-33 and IL-33R. […] Cellular RNAwas analyzed for mRNA for IL-33. […] Cellular RNA was analyzed for mRNA for IL-33. In a fourth experiment cells were treated for 24 hours with IL-13 (20 ng/mL) and ATP, and the supernatant was collected and analyzed for IL-33 levels by means of ELISA, according to the manufacturer's instructions (R&D systems). […]

[3] = system: A549 cells; test: Cytokine induction of IL-33R mRNA in A549 cells; format: cell-based, human; conditions: cytokine treatment for 72 hours
Experimental: as §1, §2

[4] = system: MEK^low population; test: Sensitivity of MEK^low CD4 population to dexamethasone-induced cell death; format: cell-based, human; conditions: BAL CD4 T cells, MEK^low (MFI 10)
Source text: FIGS. 5A-5H show the preferential expression of dual-positive TH2/TH17 cells in the BAL MEK^high CD4 T-cell population. FIGS. 5A and 5B, show the sensitivity of MEK^high and MEK^low CD4 populations to dexamethasone-induced cell death. Data are presented as percentages and absolute cell counts (in parentheses) per boxed area. […] FIGS. 5E and 5F show expression of dual-positive TH2/TH17 cells in MEK^high and MEK^low BAL CD4 T-cell populations. FIGS. 5G and 5H show the comparison of expression of dual-positive IL-4/IL-17 (FIG. 5G) and pSTAT3/pSTAT6 (FIG. 5H) cells in MEK^high and MEK^low cell populations.
Patients were allowed to continue their routine medication. Bronchoscopy and BAL were performed, as described previously (Good J T Jr, et al. Refractory asthma: importance of bronchoscopy to identify phenotypes and direct therapy. Chest 2012; 141:599-606). BAL fluid was processed immediately. Cells were isolated by means of centrifugation. Supernatant fluid was placed into aliquots in small samples and frozen. Cells were either cultured or fixed immediately in 4% paraformaldehyde and processed for flow cytometry. […]
Cells were stained with the following antibodies. […] This was detected with an Alexa Fluor 488-labeled anti-rabbit secondary antibody. […] Flow cytometric data were analyzed with FlowJo software (Tree Star, Ashland, Ore). […]

[5] = system: C57Bl/6 mice; test: Intranasal IL-33 administration, outcomes after 15 days; format: in vivo, mouse
Experimental: as §1
FIG. 27A, Effect of IL-13 on IL-33 secretion. A549 cells were treated overnight with medium or IL-13 (20 ng/mL) and ATP ([…]), and the released IL-33 was measured by using ELISA (n=6). *P=0.04. FIGS. 27B-27E, Direct effect of IL-33 on airway hyperreactivity and lung ILCs. C57Bl/6 mice were treated intranasally for 3 consecutive days with 400 ng per dose of IL-33. Outcome measures were evaluated 15 days after final exposure.
Measurement methodologies have been explained in depth in Goplen et al. (Goplen N, et al. Combined sensitization of mice to extracts of dust mite, ragweed, and Aspergillus species breaks through tolerance and establishes chronic features of asthma. J Allergy Clin Immunol 2009; 123:925-32.e11). Briefly, mice were anesthetized with ketamine (180 mg/kg), xylazine (9 mg/kg), and acepromazine (4 mg/kg). After loss of footpad pinch reflex, a tracheotomy was performed, and the mouse was attached with an 18-gauge cannula to a small-animal ventilator with a computer-controlled piston (FlexiVent; SCIREQ, Montreal, Quebec, Canada). Mice were ventilated at a frequency of 90 breaths/min with a tidal volume of 20 mL/kg during nebulization and otherwise with a frequency of 150 breaths/min with a tidal volume of 20 mL/kg while breathing against an artificial positive endexpiratory pressure of 2.5 to 3 cm H2O. Lungs were inflated to total lung capacity twice to standardize volume history. Resistance measurements were then taken to establish baselines for total lung resistance and at each methacholine dose. Group averages were expressed as fold increases in baseline resistance (means+SEMs).
Inflammation was quantified by using Metamorph image acquisition and analysis software on H&E-stained lung sections at 20× magnification, as described in Goplen et al. 2009. Airway epithelial hypertrophy and peribronchial smoothmuscle hypertrophyweremeasured as the area of epithelial or smoothmuscle per circumference of airway basement membrane. Airway inflammation was measured as the area of inflammatory infiltrates as a percentage of the total field. A minimum of 5 airways per mouse and 5 to 9 mice per group were quantified. Images were acquired on a Nikon Eclipse TE2000-U microscope by using 320 dry lenses at room temperature through a Diagnostics Instruments camera model #4.2 with Spot software 5.0 (Diagnostic Instruments, Inc, Sterling Heights, Mich.). H&E sections were mounted with Permount medium (Thermo Fisher Scientific, Inc, Waltham, Mass.). Images were adjusted for brightness and contrast to improve viewing.
Lungs were perfused with saline, and single-cell suspensions of lung cells were acquired by using mechanical mincing of lungs followed by digestion at 37° C. for 45 minutes in RPMI with 10% FBS, 1% penicillin/streptomycin, and collagenaseA (1 mg/mL). Cell suspensions were agitated at room temperature for 10 minutes in RPMI with 100 U/mL DNAse I before filtration through 40-mm filters and red blood cell lysis. Single-cell suspensions were subsequently fixed in 4% paraformaldehyde for flow cytometric analysis.
Mouse ILC2s. For mouse flow cytometric staining, all conjugate antibodies were purchased from BioLegend (San Diego, Calif.), unless otherwise stated. Mouse lung digest cells were fixed with 4% paraformaldehyde and incubated with 10% donkey serum and 1% 2.4G2. […]

[6] = intranasal, 400 ng per dose for 3 days, 15 days after
[7] = intranasal, 3 consecutive days, 400 ng per dose, 15 days after

Molecule: IL-17: cytokine purchased from PeproTech, 10 ng/mL on A549 cells
- induction of IL-33 mRNA [1]: directly induced IL-33

Molecule: IL-113: probably IL-1b cytokine (PeproTech, 2 ng/mL on A549 cells), misprinted
- IL-33 autoinduction after preincubation with cytokine [2]: unable to facilitate IL-33 autoinduction
- induction of IL-33R mRNA [3]: strong inducer of IL-33R

Molecule: C[C@@H]1C[C@H]2[C@@H]3CCC4=CC(=O)C=C[C@]4(C)[C@@]3(F)[C@@H](O)C[C@]2(C)[C@@]1(O)C(=O)CO [Dexamethasone, dexamethasone]
- cell count decrease after dexamethasone treatment, MEK^low CD4 T cells [4]: 2.7 fold

B1: IL-4: cytokine purchased from PeproTech, 10 ng/mL on A549 cells (protein, UniProt P05112 25-153, looked up)
Interleukin-4: HKCDITLQEIIKTLNSLTEQKTLCTELTVTDIFAASKNTTEKETFCRAATVLRQFYSHHEKDTRCLGATAQQFHRHKQLIRFLKRLDRNLWGLAGLNSCPVKEANQSTLENFLERLKTIMREKYSKCSS
- induction of IL-33 mRNA [1]: directly induced IL-33

B2: IL-33: interleukin-33 cytokine, given intranasally to mice or added to A549 cells (protein, UniProt Q8BVZ5 1-266, looked up)
Interleukin-33: MRPRMKYSNSKISPAKFSSTAGEALVPPCKIRRSQQKTKEFCHVYCMRLRSGLTIRKETSYFRKEPTKRYSLKSGTKHEENFSAYPRDSRKRSLLGSIQAFAASVDTLSIQGTSLLTQSPASLSTYNDQSVSFVLENGCYVINVDDSGKDQEQDQVLLRYYESPCPASQSGDGVDGKKLMVNMSPIKDTDIWLHANDKDYSVELQRGDVSPPEQAFFVLHKKSSDFVSFECKNLPGTYIGVKDNQLALVEEKDESCNNIMFKLSKI
- induction of IL-33 mRNA [1]: capable of autoinduction
- persistence of airway hyperreactivity and airway inflammation ([5]; after intranasal IL-33, 400 ng per dose for 3 days): 2 weeks
- IL-51 ILC2 numbers [5, 6]: increased
- number of lung IL-131 ILC2s [5, 6]: increased
- total number of IL-51 and IL-131 lung cells [5, 6]: increased
- airway hyperreactivity [5, 7]: induced airway hyperreactivity
- airway inflammation [5, 7]: mild airway inflammation
- IL-33 production (autoinduction) in lung cells ([5]; pro-surfactant protein C-positive epithelial cells and CD11b+ hematopoietic cells, 2 weeks after intranasal IL-33): persistent IL-33 production was observed
